The assay deals with human VWF-A2 fragment (human).

Chain of human recombinant wild-type complement factor H (P08603 19-1231): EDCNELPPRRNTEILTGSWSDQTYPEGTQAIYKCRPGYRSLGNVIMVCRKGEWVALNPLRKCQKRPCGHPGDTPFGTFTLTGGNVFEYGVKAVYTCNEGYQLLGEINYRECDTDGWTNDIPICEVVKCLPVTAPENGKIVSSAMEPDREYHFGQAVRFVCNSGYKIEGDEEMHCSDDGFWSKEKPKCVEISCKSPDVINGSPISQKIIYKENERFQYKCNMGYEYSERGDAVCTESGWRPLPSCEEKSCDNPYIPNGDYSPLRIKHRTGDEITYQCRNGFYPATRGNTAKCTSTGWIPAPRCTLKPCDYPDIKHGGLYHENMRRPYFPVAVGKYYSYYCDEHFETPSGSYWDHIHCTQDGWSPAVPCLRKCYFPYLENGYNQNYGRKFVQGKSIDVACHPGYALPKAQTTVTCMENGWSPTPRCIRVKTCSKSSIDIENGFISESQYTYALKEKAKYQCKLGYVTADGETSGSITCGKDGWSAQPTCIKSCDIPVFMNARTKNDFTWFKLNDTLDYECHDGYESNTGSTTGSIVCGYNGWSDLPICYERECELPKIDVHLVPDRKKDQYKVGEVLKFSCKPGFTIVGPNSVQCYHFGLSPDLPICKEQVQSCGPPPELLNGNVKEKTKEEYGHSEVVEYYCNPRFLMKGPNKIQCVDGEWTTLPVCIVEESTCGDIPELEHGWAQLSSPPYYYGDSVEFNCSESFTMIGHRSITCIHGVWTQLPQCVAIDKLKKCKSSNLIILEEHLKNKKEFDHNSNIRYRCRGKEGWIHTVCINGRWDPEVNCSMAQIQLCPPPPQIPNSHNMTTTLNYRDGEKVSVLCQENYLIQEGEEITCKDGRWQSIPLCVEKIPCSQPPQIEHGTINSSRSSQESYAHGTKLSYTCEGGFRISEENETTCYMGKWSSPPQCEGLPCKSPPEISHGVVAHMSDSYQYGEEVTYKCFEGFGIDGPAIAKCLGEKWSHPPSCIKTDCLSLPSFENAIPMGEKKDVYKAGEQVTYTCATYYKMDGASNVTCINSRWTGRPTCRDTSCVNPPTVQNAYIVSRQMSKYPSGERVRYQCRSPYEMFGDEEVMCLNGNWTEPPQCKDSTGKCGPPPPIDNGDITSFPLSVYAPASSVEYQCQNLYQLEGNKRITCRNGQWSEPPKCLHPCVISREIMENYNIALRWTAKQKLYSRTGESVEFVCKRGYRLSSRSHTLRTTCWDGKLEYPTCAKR

Turning to “human recombinant wild-type complement factor H (from UniProt P08603 19-1231) (natural protein)”, the optical tweezer pulling of VWF-A2 (Avi-His/SpyTag, biotinylated construct) with 1.0 μM WT-CFH: contour length Lc (no CFH: 55,3 nm) worked out at 40 nm; the optical tweezer pulling of VWF-A2 with 1.0 μM WT-CFH: energy barrier position γ, Bell-Evans fit (no CFH: 0.71 nm) stood at 1.88 nm; the optical tweezer pulling of VWF-A2 with 1.0 μM WT-CFH: persistent length Lp (no CFH: 0.28 nm) came out at 0.38 nm; the optical tweezer pulling of VWF-A2 with 1.0 μM WT-CFH: unstressed unfolding rate ku0, Bell-Evans fit (no CFH: 0.15 s^-1) came out at 0.017 s⁻¹.
For “human recombinant W1183R complement factor H (from UniProt P08603 19-1231) (natural protein)”, the optical tweezer pulling of VWF-A2 (Avi-His/SpyTag, biotinylated construct) with 1.0 μM W1183R-CFH: contour length Lc (no CFH: 55,3 nm) turned out to be 31.8 nm; the optical tweezer pulling of VWF-A2 with 1.0 μM W1183R-CFH: energy barrier position γ, Bell-Evans fit (no CFH: 0.71 nm) came out at 1.38 nm; the optical tweezer pulling of VWF-A2 with 1.0 μM W1183R-CFH: persistent length Lp (no CFH: 0.28 nm) was found to be 0.38 nm; the optical tweezer pulling of VWF-A2 with 1.0 μM W1183R-CFH: unstressed unfolding rate ku0, Bell-Evans fit (no CFH: 0.15 s^-1) amounted to 0.034 s⁻¹.

(Values after paper PMC13123425.)
